In patent US20210122813A1 (Kyowa Kirin, published 2021):
Where two headings read alike, the source gives them in different places.

T1: human BMP10 mature dimer (manufactured by R & D Systems, Inc., Cat #2926-BP) (human, UniProt O95393 317-424)
T1 construct: Bought product; also called human mature BMP10; mature BMP10
T1 sequence: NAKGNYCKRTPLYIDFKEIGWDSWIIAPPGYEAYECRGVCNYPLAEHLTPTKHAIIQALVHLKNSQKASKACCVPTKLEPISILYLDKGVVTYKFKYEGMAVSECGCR


How the values were obtained:
[1] = target: human BMP10 mature dimer (manufactured by R & D Systems, Inc., Cat #2926-BP) (human) (UniProt O95393); assay: SPR (Biacore T100), antibody captured by anti-mouse IgG, human BMP10 mature dimer as analyte
[2] = target: T1, human BMP10 mature dimer (manufactured …); assay: SPR (Biacore T100), antibody captured by anti-human IgG, human BMP10 mature dimer as analyte
Procedure: (§1) The binding activity of the anti-BMP10 antibody was measured as follows. An anti-human IgG antibody was immobilized on a CMS sensor chip (manufactured by GE Healthcare Bio-Sciences, Inc., BR100530) using Human Antibody Capture Kit (manufactured by GE Healthcare Bio-Sciences Corporation, Cat #BR-1008-39) according to the attached protocol. To a flow cell in which the anti-human IgG antibody was immobilized, the antibody prepared at 5 μg/mL was added at a flow rate of 10 μL/min for 10 seconds.
(§2) Subsequently, human mature BMP10 prepared at 5 concentrations by 3-fold serial dilution from the 100 ng/mL was added thereto at a flow rate of 30 μL/min, and a binding reaction was monitored for 1 minute and a dissociation reaction was monitored for 10 minutes. The obtained sensorgram was analyzed using Bia Evaluation Software (manufactured by GE Healthcare Bio-Sciences Corporation), and the kinetic constant of each antibody was calculated. The calculated association rate constant (ka), dissociation rate constant (kd), and dissociation constant [kd/ka=KD] of each antibody are shown in Table 4.

[3] = target: T1, human BMP10 mature dimer (manufactured …); assay: SPR (Biacore T100), antibody captured by anti-human IgG, human BMP10 mature dimer as analyte; 100 ng/mL top concentration, 10 minutes dissociation (Example 13, Table 4)
Procedure: as §1, §2

[4] = target: T1, human BMP10 mature dimer (manufactured …); assay: SPR (Biacore T100), antibody captured by anti-human IgG, human BMP10 mature dimer as analyte; remark: listed apart in the source
Procedure: Further, subsequently, human mature BMP10 prepared at 5 concentrations by 3-fold serial dilution from 300 ng/mL was added thereto at a flow rate of 30 μL/min, and a binding reaction was monitored for 1 minute and a dissociation reaction was monitored for 30 minutes. The obtained sensorgram was analyzed using Bia Evaluation Software (manufactured by GE Healthcare Bio-Sciences Corporation), and the kinetic constant of each antibody was calculated.

Kd [2] [pM]	Kd [4] [pM]	Molecule	other results
		MAB2926 (clone No. 462732, R & D Systems, Inc.) (antibody)	Kd [1]: 33.1 pM
2.62	2.62	18C1 chimeric antibody (antibody, V domains shown, also called ch18C1 antibody; ch18C1) VH: QVQLKETGPDLVQLTQTLSITCTVSGFSLTTYNVHWVRQPPGKGLEWMGTMWNGGGIDYNSAFKSRLSISRDTSKSQVFLKMNSLQTDDTAKYFCARLGYYVDYWGHGIMVTVSS VL: QFVLIQSNSMSTSLGSTVKLSCKRSTGNIGSSYVYWYQQHEGRSPTTMIYDGDKRPDGVPDRFSGSIDSSSNSAFLTINNVQIEDEAIYFCQSFSSGIKFIFGGGTKLTVL	kon [3]: 3.88e+07 M⁻¹ s⁻¹
	11.8	12H3 chimeric antibody (antibody, V domains shown, also called ch12H3 antibody) VH: QVQLKETGPDLVQLTQTLSITCTVSGFSLSTYNVHWVRQPPGKGLEWMGAMWNGGGINYNSAFKSRLSISRDTSKSQVFLKMNSLQTDDTAKYFCARFGYGFDYWGQGVMVTVSS VL: ETVMTQSPTSMSTSIGERVTLNCKASQSVGINVDWYQRTPGQSPKLLIHGASNRHTGVPDRFTGSGFGRDFTLTISNVEAEDLTIYYCLQYGSIPLTFGAGTKLELI	
	6.26	11H10 chimeric antibody (antibody, V domains shown, also called ch11H10 antibody) VH: QVQLKETGPDLVQLTQTLSITCTVSGFSLTTYNVHWVRQPPGKGLEWMGAMWNGGGTDYNSAFKSRLSISRDTSKSQVFLKMNSLQTDDTAKYFCARLAEGFDYWGQGVMVTVSS VL: DTVMTQSPASMSTSVGERVTVNCKASQSVGTVVAWFQQKPGQSPKRLIYLATNRHTGVPDRFTGSGFGRDFTLTISNVEAEDLAVYYCLQYGSIPFTFGSGTKLEIK	
3.19		VLres16HVmut07 (antibody, V domains shown, Humanized 18C1 antibody; also called hz18C1 antibody; anti-BMP10 humanized antibody) VH: QVQLQESGPDLVQPSQTLDITCTVSGFSLTTYNVHWVRQPPGKGLEWMGTMWNGGGIDYNSAFKDRLAISRDTSKNQVSLKMDSLQTDDTAKYFCARLGYYVDYWGQGILVTVSS VL: QFALIQSDSMSTSAGSTVKLSCKRSTGNIGSSYVYWYQQHEGRSPTTMIYDGDKRPDGVPDRFSGSIDSSSNSAFLTINDVQIEDEAVYFCQSFSSGIKFIFGGGTKLTVL	
2.88		VLres16HVmut10 (antibody, V domains shown, Humanized 18C1 antibody; also called hz18C1 antibody; anti-BMP10 humanized antibody) VH: QVQLQESGPDLVQPSQTLDITCTVSGFSLTTYNVHWVRQPPGKGLEWMGTMWNGGGIDYNSAFKDRLAISRDTSKNEVFLKMDSLQTDDTAVYFCARLGYYVDYWGQGILVTVSS VL: QFALIQSDSMSTSAGSTVKLSCKRSTGNIGSSYVYWYQQHEGRSPTTMIYDGDKRPDGVPDRFSGSIDSSSNSAFLTINDVQIEDEAVYFCQSFSSGIKFIFGGGTKLTVL	
3.69		VLres16VHres16 (antibody, V domains shown, Humanized 18C1 antibody; also called VLres16VHres16 antibody; hz18C1 antibody) VH: QVQLKETGPDLVQPTQTLDITCTVSGFSLTTYNVHWVRQPPGKGLEWMGTMWNGGGIDYNSAFKSRLAISRDTSKSEVFLKMDSLQTDDTAKYFCARLGYYVDYWGQGIMVTVSS VL: QFALIQSDSMSTSAGSTVKLSCKRSTGNIGSSYVYWYQQHEGRSPTTMIYDGDKRPDGVPDRFSGSIDSSSNSAFLTINDVQIEDEAVYFCQSFSSGIKFIFGGGTKLTVL	
